In publication PMC3836970 one finds quantitative in vitro recombination (blue-white screen, white colonies): excision between attL and attR with integrase and Gp3, quantitative in vitro recombination (blue-white screen, white colonies): integration between attB and attP in the presence of Gp3 (more than 90% without Gp3) and stoichiometry N data, which are given here for two substances.

For assay [1], the target named is Streptomyces phage φBT1 integrase (Streptomyces phage φBT1).
The target in assay [2] is Gp3 of Streptomyces phage φBT1 (recombination directionality factor, excisionase) (Streptomyces phage φBT1). The experiment in a line: cross-linking; purified proteins, alone or mixed, incubated with or without dimethyl suberimidate (DMS), analysed by SDS-PAGE.
The target in assay [3] is Streptomyces phage φBT1 integrase (Streptomyces phage φBT1). Described as above.

As for “Gp3 of Streptomyces phage φBT1 (recombination directionality factor, excisionase) (natural protein)”, in assay [1], the quantitative in vitro recombination (blue-white screen, white colonies): excision between attL and attR with integrase and Gp3 is 89%; the quantitative in vitro recombination (blue-white screen, white colonies): integration between attB and attP in the presence of Gp3 (more than 90% without Gp3) came out at 2%. In addition, the stoichiometry N in assay [2] came to 2.
In assay [3], “Streptomyces phage φBT1 integrase (enzyme)” displayed a stoichiometry N of 2.
